Reference: article PMC2756588

T1: Abp1, P15891
T1 sequence (P15891 535-592, looked up): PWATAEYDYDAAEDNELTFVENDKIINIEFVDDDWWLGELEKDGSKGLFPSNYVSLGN

T2: Bbc1, P47068
T2 sequence (P47068 1-78, looked up): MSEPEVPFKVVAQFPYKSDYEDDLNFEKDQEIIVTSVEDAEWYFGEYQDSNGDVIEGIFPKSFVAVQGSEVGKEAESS

T3: Boi1, P38041
T3 sequence (P38041 1-86, looked up): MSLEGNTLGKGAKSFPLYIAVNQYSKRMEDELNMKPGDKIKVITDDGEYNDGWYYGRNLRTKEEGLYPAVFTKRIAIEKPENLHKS

T4: Boi2, P39969
T4 sequence (P39969 32-116, looked up): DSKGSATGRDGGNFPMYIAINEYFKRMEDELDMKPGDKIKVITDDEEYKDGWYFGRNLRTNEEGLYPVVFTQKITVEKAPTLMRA

T5: Bud14, P27637
T5 sequence (P27637 247-328, looked up): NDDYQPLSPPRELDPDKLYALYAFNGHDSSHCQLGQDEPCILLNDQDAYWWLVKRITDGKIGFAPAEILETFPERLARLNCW

T6: Bzz1-1, P38822
T6 sequence (P38822 478-572, looked up): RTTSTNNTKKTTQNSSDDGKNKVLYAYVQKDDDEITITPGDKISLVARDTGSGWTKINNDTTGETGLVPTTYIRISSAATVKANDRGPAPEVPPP

T7: Bzz1-2, P38822
T7 sequence (P38822 568-633, looked up): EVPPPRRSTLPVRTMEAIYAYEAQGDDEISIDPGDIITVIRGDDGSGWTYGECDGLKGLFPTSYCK

T8: Cdc25, P04821
T8 sequence (P04821 50-136, looked up): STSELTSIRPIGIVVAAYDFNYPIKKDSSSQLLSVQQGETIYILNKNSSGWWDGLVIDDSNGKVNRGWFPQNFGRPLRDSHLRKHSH

T9: Cyk3, Q07533
T9 sequence (Q07533 1-83, looked up): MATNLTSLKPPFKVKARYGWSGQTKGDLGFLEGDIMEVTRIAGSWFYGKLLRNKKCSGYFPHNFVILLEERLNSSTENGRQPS

T10: Fus1, P11710
T10 sequence (P11710 432-512, looked up): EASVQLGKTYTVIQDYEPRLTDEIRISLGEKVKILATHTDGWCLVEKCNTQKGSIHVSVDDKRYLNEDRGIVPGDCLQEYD

T11: Hof1, Q05080
T11 sequence (Q05080 590-669, looked up): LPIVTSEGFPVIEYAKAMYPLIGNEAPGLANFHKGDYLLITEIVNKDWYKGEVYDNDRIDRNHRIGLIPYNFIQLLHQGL

T12: Hse1, P38753
T12 sequence (P38753 208-285, looked up): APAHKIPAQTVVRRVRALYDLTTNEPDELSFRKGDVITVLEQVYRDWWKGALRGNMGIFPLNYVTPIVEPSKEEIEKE

T13: Lsb1, P53281
T13 sequence (P53281 45-122, looked up): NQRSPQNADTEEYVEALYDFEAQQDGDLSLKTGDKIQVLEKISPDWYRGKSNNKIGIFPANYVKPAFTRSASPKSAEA

T14: Lsb3, P43603
T14 sequence (P43603 385-451, looked up): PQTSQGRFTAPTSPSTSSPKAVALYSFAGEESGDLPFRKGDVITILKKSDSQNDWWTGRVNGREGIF

T15: Lsb4, P32793
T15 sequence (P32793 402-468, looked up): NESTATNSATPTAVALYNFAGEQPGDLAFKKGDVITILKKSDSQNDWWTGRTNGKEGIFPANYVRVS

T16: Myo5, Q04439
T16 sequence (Q04439 1072-1160, looked up): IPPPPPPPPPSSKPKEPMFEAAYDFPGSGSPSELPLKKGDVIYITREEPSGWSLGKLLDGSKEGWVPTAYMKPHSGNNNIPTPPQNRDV

T17: Nbp2, Q12163
T17 sequence (Q12163 103-180, looked up): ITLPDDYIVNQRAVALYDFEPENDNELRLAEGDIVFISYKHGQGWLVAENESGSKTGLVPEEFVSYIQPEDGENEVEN

T18: Pex13, P80667
T18 sequence (P80667 295-386, looked up): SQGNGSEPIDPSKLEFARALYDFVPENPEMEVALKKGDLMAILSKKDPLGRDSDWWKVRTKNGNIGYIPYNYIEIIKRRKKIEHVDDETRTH

T19: Pin3, Q06449
T19 sequence (Q06449 53-122, looked up): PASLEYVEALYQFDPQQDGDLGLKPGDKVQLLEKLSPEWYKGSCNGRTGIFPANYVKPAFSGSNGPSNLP

T20: Sla1-2, P32790
T20 sequence (P32790 60-140, looked up): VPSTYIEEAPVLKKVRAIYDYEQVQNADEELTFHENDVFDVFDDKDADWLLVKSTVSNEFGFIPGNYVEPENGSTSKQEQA

T21: Sla1-3, P32790
T21 sequence (P32790 344-424, looked up): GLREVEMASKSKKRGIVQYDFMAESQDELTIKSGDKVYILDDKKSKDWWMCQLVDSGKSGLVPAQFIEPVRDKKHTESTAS


Legend:
Assay in all cases: SPOT array
[1] = biological target: T1, Abp1, P15891; conditions: median of control spots 935
[2] = biological target: T2, Bbc1, P47068; conditions: median of control spots 796
[3] = biological target: Bem1-1, P29366; conditions: median of control spots 4282
[4] = biological target: Bem1-2, P29366; conditions: median of control spots 4347
[5] = biological target: T3, Boi1, P38041; conditions: median of control spots 1162
[6] = biological target: T4, Boi2, P39969; conditions: median of control spots 1161
[7] = biological target: T5, Bud14, P27637; conditions: median of control spots 956
[8] = biological target: T6, Bzz1-1, P38822; conditions: median of control spots 4446
[9] = biological target: T7, Bzz1-2, P38822; conditions: median of control spots 4538
[10] = biological target: T8, Cdc25, P04821; conditions: median of control spots 969
[11] = biological target: T9, Cyk3, Q07533; conditions: median of control spots 1451
[12] = biological target: T10, Fus1, P11710; conditions: median of control spots 1200
[13] = biological target: GST; conditions: median of control spots 978
[14] = biological target: T11, Hof1, Q05080; conditions: median of control spots 4086
[15] = biological target: T12, Hse1, P38753; conditions: median of control spots 1727
[16] = biological target: T13, Lsb1, P53281; conditions: median of control spots 388
[17] = biological target: T14, Lsb3, P43603; conditions: median of control spots 406
[18] = biological target: T15, Lsb4, P32793; conditions: median of control spots 397
[19] = biological target: Myo3, P36006; conditions: median of control spots 468
[20] = biological target: T16, Myo5, Q04439; conditions: median of control spots 471
[21] = biological target: T17, Nbp2, Q12163; conditions: median of control spots 357
[22] = biological target: T18, Pex13, P80667; conditions: median of control spots 1341
[23] = biological target: T19, Pin3, Q06449; conditions: median of control spots 2171
[24] = biological target: Rvs167, P39743; conditions: median of control spots 2707
[25] = biological target: Sho1, P40073; conditions: median of control spots 1148
[26] = biological target: T20, Sla1-2, P32790; conditions: median of control spots 712
[27] = biological target: T21, Sla1-3, P32790; conditions: median of control spots 5475

Bem1-2, P29366, sequence (P29366 139-227): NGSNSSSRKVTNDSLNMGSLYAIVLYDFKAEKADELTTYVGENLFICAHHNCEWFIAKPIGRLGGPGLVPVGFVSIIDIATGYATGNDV
Rvs167, P39743, sequence (P39743 419-482): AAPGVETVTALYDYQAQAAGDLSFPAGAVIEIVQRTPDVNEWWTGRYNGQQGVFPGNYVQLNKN
Sho1, P40073, sequence (P40073 287-367): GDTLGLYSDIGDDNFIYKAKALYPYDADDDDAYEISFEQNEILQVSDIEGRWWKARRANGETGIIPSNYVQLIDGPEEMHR
Bem1-1, P29366, sequence (P29366 55-141): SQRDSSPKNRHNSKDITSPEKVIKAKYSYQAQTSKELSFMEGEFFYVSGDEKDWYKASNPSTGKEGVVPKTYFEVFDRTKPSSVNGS

Row | Binder | SPOT intensity [1] | SPOT intensity [2] | SPOT intensity [3] | SPOT intensity [4] | SPOT intensity [5] | SPOT intensity [6] | SPOT intensity [7] | SPOT intensity [8] | SPOT intensity [9] | SPOT intensity [10] | SPOT intensity [11] | SPOT intensity [12] | SPOT intensity [13] | SPOT intensity [14] | SPOT intensity [15] | SPOT intensity [16] | SPOT intensity [17] | SPOT intensity [18] | SPOT intensity [19] | SPOT intensity [20] | further results
1 | IHTRRPSSTSQYLIR | 27 | 6 | 9 | 43 | 2 | 0 | 4 | 0 | 7 | 10 | 1 | 233 | 0 | 11 | 22 | 0 | 0 | 2 | 1 | 1 | SPOT intensity [21]: 0; SPOT intensity [22]: 11; SPOT intensity [23]: 25; SPOT intensity [24]: 0; SPOT intensity [25]: 28; SPOT intensity [26]: 0; SPOT intensity [27]: 21
2 | LKVTPGRRAPTISKI | 83 | 17 | 1 | 3 | 0 | 2 | 8 | 0 | 1 | 13 | 1 | 0 | 0 | 0 | 0 | 0 | 0 | 7 | 80 | 6 | SPOT intensity [21]: 85; SPOT intensity [22]: 3; SPOT intensity [23]: 14; SPOT intensity [24]: 0; SPOT intensity [25]: 72; SPOT intensity [26]: 0; SPOT intensity [27]: 6
3 | RKNRAPPQRPRFNRE | 235 | 362 | 0 | 65 | 8 | 3 | 15 | 8 | 77 | 30 | 4 | 14 | 4 | 6 | 25 | 390 | 30 | 49 | 51 | 5 | SPOT intensity [21]: 240; SPOT intensity [22]: 14; SPOT intensity [23]: 12; SPOT intensity [24]: 4; SPOT intensity [25]: 178; SPOT intensity [26]: 4; SPOT intensity [27]: 379

The next lines start with results.

Row | SPOT intensity [1] | SPOT intensity [2] | SPOT intensity [3] | SPOT intensity [4] | SPOT intensity [5] | SPOT intensity [6] | SPOT intensity [7] | SPOT intensity [8] | SPOT intensity [9] | SPOT intensity [10] | SPOT intensity [11] | SPOT intensity [12] | SPOT intensity [13] | SPOT intensity [14] | SPOT intensity [15] | SPOT intensity [16] | SPOT intensity [17] | SPOT intensity [18] | SPOT intensity [19] | SPOT intensity [20] | Binder | further results
4 | 326 | 98 | 0 | 567 | 0 | 0 | 5 | 2 | 350 | 9 | 0 | 0 | 1 | 0 | 14 | 140 | 54 | 88 | 81 | 64 | KMSRSPPRPPSLKII | SPOT intensity [21]: 513; SPOT intensity [22]: 124; SPOT intensity [23]: 69; SPOT intensity [24]: 67; SPOT intensity [25]: 55; SPOT intensity [26]: 8; SPOT intensity [27]: 88
5 | 202 | 31 | 0 | 81 | 2 | 1 | 12 | 9 | 49 | 53 | 1 | 6 | 1 | 24 | 440 | 0 | 4 | 20 | 42 | 3 | NLPKRKPPKLQGPFS | SPOT intensity [21]: 56; SPOT intensity [22]: 11; SPOT intensity [23]: 6; SPOT intensity [24]: 0; SPOT intensity [25]: 121; SPOT intensity [26]: 1; SPOT intensity [27]: 213
6 | 298 | 535 | 0 | 104 | 12 | 7 | 18 | 11 | 91 | 40 | 12 | 26 | 4 | 8 | 23 | 670 | 68 | 75 | 61 | 3 | RKNRAPPQRPRFNRD | SPOT intensity [21]: 490; SPOT intensity [22]: 10; SPOT intensity [23]: 9; SPOT intensity [24]: 2; SPOT intensity [25]: 262; SPOT intensity [26]: 3; SPOT intensity [27]: 353
